# According to US9255132B2, “Angiopoietin derived peptides” (Compugen Ltd., priority 2008, dated 2016):
# “Also recorded” adds a separate entry of the source. Residues, ends and D or L forms follow the SMILES beside them.
# Experiments:
# Details in all cases: CM5 chip, 10-50 μM peptide
# human Ang4 = biological target: T1, human Ang4 (Homo sapiens, UniProt Q9Y264); test: BIACORE (SPR) binding of peptides to immobilized recombinant Ang4
# T1 construct: purchased R&D Systems 964-AN-025/CF
# T1 sequence (Q9Y264 25-503): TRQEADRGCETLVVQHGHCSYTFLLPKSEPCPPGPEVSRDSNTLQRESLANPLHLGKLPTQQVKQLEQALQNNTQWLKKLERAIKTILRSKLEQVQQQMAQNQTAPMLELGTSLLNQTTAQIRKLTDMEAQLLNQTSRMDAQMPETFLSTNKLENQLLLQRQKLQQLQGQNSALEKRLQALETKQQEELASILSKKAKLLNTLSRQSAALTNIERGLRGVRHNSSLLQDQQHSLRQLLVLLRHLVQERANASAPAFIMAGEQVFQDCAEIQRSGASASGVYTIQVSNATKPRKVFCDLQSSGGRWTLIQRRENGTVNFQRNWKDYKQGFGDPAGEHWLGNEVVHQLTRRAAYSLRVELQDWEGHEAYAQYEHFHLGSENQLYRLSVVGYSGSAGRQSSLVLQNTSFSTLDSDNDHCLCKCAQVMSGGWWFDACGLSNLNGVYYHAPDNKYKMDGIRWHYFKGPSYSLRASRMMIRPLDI
# Excerpt: (§1) The capability of CGEN-H2 [SEQ ID NO: 1], CGEN-H3 [SEQ ID NO: 2], CGEN-A8 [SEQ ID NO: 3], CGEN-H7 [SEQ ID NO: 4], CGEN-G4 [SEQ ID NO: 5], CGEN-G6 [SEQ ID NO: 6], CGEN-F9 [SEQ ID NO: 7], CGEN-F12 [SEQ ID NO: 8], CGEN-C6-30 [SEQ ID NO: 9], CGEN-All [SEQ ID NO: 10], and CGEN-G2 [SEQ ID NO: 11] to specifically bind to recombinant Ang1, Ang2, and Ang4 was investigated using the BIACORE technology, measuring protein-protein interaction and binding affinity (Wendler et al 2005, Anal Bioanal Chem, 381: 1056-1064). The technology is based on surface plasmon resonance (SPR), an optical phenomenon that enables detection of unlabeled interactants in real time. The SPR-based biosensors can be used in determination of active concentration, screening and characterization in terms of both affinity and kinetics.
# (§2) Peptide-protein binding was analyzed using surface plasmon resonance. Analysis of the to interaction between CGEN-H2 [SEQ ID NO: 1], CGEN-H3 [SEQ ID NO: 2], CGEN-A8 [SEQ ID NO: 3], CGEN-H7 [SEQ ID NO: 4], CGEN-G4 [SEQ ID NO: 5], CGEN-G6 [SEQ ID NO: 6], CGEN-F9 [SEQ ID NO: 7], CGEN-F12 [SEQ ID NO: 8], CGEN-C6 [SEQ ID NO: 9], CGEN-A11 [SEQ ID NO: 10], and CGEN-G2 [SEQ ID NO: 11] peptides and recombinant human Ang1 carrier-free (R&D Systems, Cat#923-AN-025/CF, Lot#FHW1507031), human Ang2 carrier-free (R&D Systems, Cat#623-AN-025/CF, Lot#BNO0457121), and human Ang4 carrier-free (R&D Systems, Cat#964-AN-025/CF, Lot#ELM025121) was conducted using the BIAcore biosensor (Pharmacia Biosensor, Uppsala, Sweden). The recombinant Ang1, Ang2, and Ang4 were immobilized directly to a CM5 sensor chip. Solutions containing 10-50 μM of CGEN-H2 [SEQ ID NO: 1], CGEN-H3 [SEQ ID NO: 2], CGEN-A8 [SEQ ID NO: 3], CGEN-H7 [SEQ ID NO: 4], CGEN-G4 [SEQ ID NO: 5], CGEN-G6 [SEQ ID NO: 6], CGEN-F9 [SEQ ID NO: 7], CGEN-F12 [SEQ ID NO: 8], CGEN-C6 [SEQ ID NO: 9], CGEN-A11 [SEQ ID NO: 10], and CGEN-G2 [SEQ ID NO: 11] peptides were injected into the sample chamber of the BIACORE device at a rate of […] and the interaction was monitored using surface plasmon resonance.
# (§3) Solutions containing different concentrations of CGEN-G6 [SEQ ID NO: 6], CGEN-F9 [SEQ ID NO: 7], CGEN-F12 [SEQ ID NO: 8], CGEN-A11 [SEQ ID NO: 10], and CGEN-G2 [SEQ ID NO: 11] peptides (as indicated in Table 2) were injected into the sample chamber of the BIACORE device at a rate of […] and the interaction was monitored using surface plasmon resonance. As a background, the solutions were also injected onto an empty flow cell with no immobilized ligand and the in binding levels achieved were subtracted. Data was analyzed using BIAevaluation software. The affinity constant of the interaction between CGEN-G6 [SEQ ID NO: 6], CGEN-F9 [SEQ ID NO: 7], CGEN-F12 [SEQ ID NO: 8], CGEN-C6 [SEQ ID NO: 9], CGEN-A11 [SEQ ID NO: 10], and CGEN-G2 [SEQ ID NO: 11] and Ang1, Ang2, or Ang4 was determined by direct kinetic analysis. The 1:1 Langmuir binding model was used to fit kinetic data.
# (§4) Table 2 summarizes results of analysis of CGEN-G6 [SEQ ID NO: 6], CGEN-F9 [SEQ ID NO: 7], CGEN-F12 [SEQ ID NO: 8], CGEN-A11 [SEQ ID NO: 10], and CGEN-G2 [SEQ ID NO: 11] interaction with Ang1, Ang2, or Ang4. Kinetic measurements were done at the indicated concentration range, and they are presented as KD (M). CGEN-F12 [SEQ ID NO: 8] bound to Ang1 and Ang4 with high affinity. The specificity of this binding is not clear.
# recombinant human Ang1 = biological target: T2, recombinant human Ang1 (Homo sapiens, UniProt Q15389); test: BIACORE (SPR) binding of peptides to immobilized recombinant Ang1
# T2 construct: purchased R&D Systems 923-AN-025/CF
# T2 sequence (Q15389 16-498): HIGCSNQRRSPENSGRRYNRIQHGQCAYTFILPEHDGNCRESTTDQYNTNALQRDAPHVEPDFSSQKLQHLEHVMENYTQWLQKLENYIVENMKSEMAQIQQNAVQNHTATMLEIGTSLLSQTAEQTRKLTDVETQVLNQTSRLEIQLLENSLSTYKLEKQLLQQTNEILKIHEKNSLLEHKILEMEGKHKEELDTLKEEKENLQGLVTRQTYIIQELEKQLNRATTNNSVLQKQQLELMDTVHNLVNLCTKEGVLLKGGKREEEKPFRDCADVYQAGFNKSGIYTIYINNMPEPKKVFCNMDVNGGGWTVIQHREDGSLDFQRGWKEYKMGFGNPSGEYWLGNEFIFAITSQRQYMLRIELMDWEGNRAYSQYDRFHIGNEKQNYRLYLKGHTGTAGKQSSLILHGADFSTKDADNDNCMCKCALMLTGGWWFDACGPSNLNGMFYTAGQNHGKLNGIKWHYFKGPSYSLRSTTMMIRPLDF
# Excerpt: as §1, §2, §3, §4
# human Ang2 = biological target: T3, human Ang2 (Homo sapiens, UniProt O15123); test: BIACORE (SPR) binding of peptides to immobilized recombinant Ang2
# T3 construct: purchased R&D Systems 623-AN-025/CF
# T3 sequence (O15123 19-496): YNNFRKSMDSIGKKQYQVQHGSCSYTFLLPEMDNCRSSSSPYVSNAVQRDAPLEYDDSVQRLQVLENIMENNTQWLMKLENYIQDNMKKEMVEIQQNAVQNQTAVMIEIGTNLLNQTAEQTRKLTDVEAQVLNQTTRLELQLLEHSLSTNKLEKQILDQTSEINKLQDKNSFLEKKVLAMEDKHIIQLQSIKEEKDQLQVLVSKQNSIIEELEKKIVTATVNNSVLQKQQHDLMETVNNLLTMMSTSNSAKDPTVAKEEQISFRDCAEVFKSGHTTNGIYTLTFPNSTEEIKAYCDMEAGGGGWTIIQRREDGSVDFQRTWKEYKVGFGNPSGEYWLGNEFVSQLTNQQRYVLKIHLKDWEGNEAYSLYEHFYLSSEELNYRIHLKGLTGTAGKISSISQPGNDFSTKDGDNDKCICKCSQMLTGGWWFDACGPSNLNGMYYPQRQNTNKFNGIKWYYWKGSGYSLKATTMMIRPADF
# Excerpt: as §1, §2, §3, §4
Compound,binding to immobilized Ang4 (in words) (human Ang4),binding to immobilized Ang1 (in words) (recombinant human Ang1),binding to immobilized Ang2 (in words) (human Ang2)
CC[C@H](C)[C@H](NC(=O)[C@H](CO)NC(=O)[C@H](C)NC(=O)[C@H](CC(C)C)NC(=O)[C@H](CCC(=O)O)NC(=O)[C@H](CCC(=O)O)NC(=O)[C@H](CCC(N)=O)NC(C)=O)C(=O)N[C@@H](CC(C)C)C(=O)N[C@@H](CO)C(=O)N[C@@H](CCCCN)C(=O)N[C@@H](CCCCN)C(=O)N[C@@H](C)C(=O)N[C@@H](CCCCN)C(=O)N[C@@H](CC(C)C)C(=O)N[C@@H](CC(C)C)C(=O)N[C@@H](CC(N)=O)C(=O)N[C@H](C(=O)N[C@@H](CC(C)C)C(=O)N[C@@H](CO)C(=O)N[C@@H](CCCNC(=N)N)C(=O)N[C@@H](CCC(N)=O)C(=O)N[C@@H](CO)C(=O)N[C@@H](C)C(=O)N[C@@H](C)C(=O)N[C@@H](CC(C)C)C(=O)N[C@H](C(=O)N[C@@H](CC(N)=O)C(=O)N[C@H](C(=O)N[C@@H](CCC(=O)O)C(=O)N[C@@H](CCCNC(=N)N)C(=O)NCC(=O)N[C@@H](CC(C)C)C(=O)N[C@@H](CCCNC(=N)N)C(=O)NCC(=O)N[C@H](C(=O)N[C@@H](CCCNC(=N)N)C(N)=O)C(C)C)[C@@H](C)CC)[C@@H](C)O)[C@@H](C)O [CGEN-F9] (Ac-QEELASILSKKAKLLNTLSRQSAALTNIERGLRGVR-NH2),capable of binding,capable of binding,capable of binding
CC(=O)N[C@@H](CCC(N)=O)C(=O)N[C@@H](Cc1c[nH]cn1)C(=O)N[C@@H](CO)C(=O)N[C@@H](CC(C)C)C(=O)N[C@@H](CCCNC(=N)N)C(=O)N[C@@H](CCC(N)=O)C(=O)N[C@@H](CC(C)C)C(=O)N[C@@H](CC(C)C)C(=O)N[C@H](C(=O)N[C@@H](CC(C)C)C(=O)N[C@@H](CC(C)C)C(=O)N[C@@H](CCCNC(=N)N)C(=O)N[C@@H](Cc1c[nH]cn1)C(=O)N[C@@H](CC(C)C)C(=O)N[C@H](C(=O)N[C@@H](CCC(N)=O)C(=O)N[C@@H](CCC(=O)O)C(=O)N[C@@H](CCCNC(=N)N)C(=O)N[C@@H](C)C(=O)N[C@@H](CC(N)=O)C(=O)N[C@@H](C)C(=O)N[C@@H](CO)C(=O)N[C@@H](C)C(N)=O)C(C)C)C(C)C [CGEN-F12] (Ac-QHSLRQLLVLLRHLVQERANASA-NH2),capable of binding; also recorded: high affinity,capable of binding; also recorded: high affinity,capable of binding
"LKEEKENLQGLVTRQTYIIQELEKQLNRAT (Ac-LKEEKENLQGLVTRQTYIIQELEKQLNRAT-NH2) [CGEN-H2, amino acid residues 212-241 of angiopoietin 1]",none or low binding,none or low binding,none or low binding
"LMDTVHNLVNL (Ac-LMDTVHNLVNL-NH2) [CGEN-A8, amino acid residues 254-264 of angiopoietin 1]",none or low binding,none or low binding,none or low binding
"NEILKIHEKNSLLEHKILEMEGKHK (Ac-NEILKIHEKNSLLEHKILEMEGKHK-NH2) [CGEN-H7, amino acid residues 182-206 of angiopoietin 1]",none or low binding,none or low binding,none or low binding
"QLQVLVSKQNSIIEEL (Ac-QLQVLVSKQNSIIEEL-NH2) [CGEN-G4, amino acid residues 215-230 of angiopoietin 2]",none or low binding,none or low binding,none or low binding
"TDMEAQLLNQTSRMDAQM (Ac-TDMEAQLLNQTSRMDAQM-NH2) [CGEN-C6, amino acid residues 150-167 of angiopoietin 4]",did not bind,did not bind,not sufficiently strong
"TNNSVLQKQQL (Ac-TNNSVLQKQQL-NH2) [CGEN-H3, amino acid residues 242-252 of angiopoietin 1]",none or low binding,none or low binding,none or low binding
